Data from patent publication US7262024.

B1: New 139 (protein)
chain: MQITYTDDEIQVAKLAGKYTTEDGYIFDGGWIKKDSLSEAERAAAQAYAKEKGLTPPSTDHQDSGNTEAKGAEAIYNRVKAAKKVPLDRMPYNLQYTVEVKNGSLIIPHHDHYHNIKFEWFDEGLYEAPKGYSLEDLLATVKYYVEGGNASDHVRKNKADQDSKPDEDKEHDEVSEPTHPESDEKENHAGLNPSADNLYKPSTDTEETEEEAEDTTDEAEIPGGPSIRQNAMETLTGLKSSLLLGTKDNNTISAEVDSLLALLKESQPAPIQ
B2: VP56 (protein)
chain: MQIGQPTLPNNSLATPSPSLPINPGTSHEKHEEDGYGFDANRIIAEDESGFVMSHGDSNHYFFKKDLTEEQIKAAQKHLEEVKTSHNGLDSLSSHEQDYPGNAKEMKDLDKKIEEKIAGIMKQYGVKRESIVVNKEKNAIIYPSGDHHHADPIDEHKPVGIGHSHSNYELFKPEEGVAKKEGNKVYTGEELTNVVNLLKNSTFNNQNFTLANGQKRVSFSFPPELEKKLGINMLVKLITPDGKVLEKVSGKVFGEGVGNIANFELDQPYLPGQTFKYTIASKDYPEVSYDGTFTVPTSLAYKMASQTIFYPFHAGDTYLRVNPQFAVPKGTDALVRVFDEFHGNAYLENNYKVGEIKLPIPKLNQGTTRTAGNKIPVTFMANAYLDNQSTYIVEVPILEKENQTDKPSILPQFKRNKAQENSKLDEKVEEPKTSEKVEKEKLSETGNSTSNSTLEEVPTVDPVQEKVAKFAESYGMKLENVLFNMDGTIELYLPSGEVIKKNMADFTGEAPQGNGENKPSENGKVSTGTVENQPTENKPADSLPEAPNEKPVKPENSTDNGMLNPEGNVGSDPMLDPALEEAPAVDPVQEKLEKFTASYGLGLDSVIFNMDGTIELRLPSGEVIKKNLSDFIA
B3: VP147 (protein)
chain: MQITYTDDEIQVAKLAGKYTTEDGYIFDGGWIKKDSLSEAERAAAQAYAKEKGLTPPSTDHQDSGNTEAKGAEAIYNRVKAAKKVPLDRMPYNLQYTVEVKNGSLIIPHHDHYHNIKFEWFDEGLYEAPKGYSLEDLLATVKYYVEGGNASDHVRKNKADQDSKPDEDKEHDEVSEPTHPESDEKENHAGLNPSADNLYKPSTDTEETEEEAEDTTDEAEIPGGPSIRQNAMETLTGLKSSLLLGTKDNNTISAEVDSLLALLKESQPAPIQGGQIGQPTLPNNSLATPSPSLPINPGTSHEKHEEDGYGFDANRIIAEDESGFVMSHGDSNHYFFKKDLTEEQIKAAQKHLEEVKTSHNGLDSLSSHEQDYPGNAKEMKDLDKKIEEKIAGIMKQYGVKRESIVVNKEKNAIIYPSGDHHHADPIDEHKPVGIGHSHSNYELFKPEEGVAKKEGNKVYTGEELTNVVNLLKNSTFNNQNFTLANGQKRVSFSFPPELEKKLGINMLVKLITPDGKVLEKVSGKVFGEGVGNIANFELDQPYLPGQTFKYTIASKDYPEVSYDGTFTVPTSLAYKMASQTIFYPFHAGDTYLRVNPQFAVPKGTDALVRVFDEFHGNAYLENNYKVGEIKLPIPKLNQGTTRTAGNKIPVTFMANAYLDNQSTYIVEVPILEKENQTDKPSILPQFKRNKAQENSKLDEKVEEPKTSEKVEKEKLSETGNSTSNSTLEEVPTVDPVQEKVAKFAESYGMKLENVLFNMDGTIELYLPSGEVIKKNMADFTGEAPQGNGENKPSENGKVSTGTVENQPTENKPADSLPEAPNEKPVKPENSTDNGMLNPEGNVGSDPMLDPALEEAPAVDPVQEKLEKFTASYGLGLDSVIFNMDGTIELRLPSGEVIKKNLSDFIA

What was measured:
[1] = target: Mouse serum rVP147-AlOH (mouse 1); experiment: flow cytometry, inhibition of surface labeling by serum rVP147-AlOH (mouse 1)
[2] = target: Mouse serum rVP56-QuilA (mouse 1); experiment: flow cytometry, inhibition of surface labeling by serum rVP56-QuilA (mouse 1)
[3] = target: Mouse serum rVP147-QuilA (mouse 1); experiment: flow cytometry, inhibition of surface labeling by serum rVP147-QuilA (mouse 1)
[4] = target: Mouse serum rVP56-AlOH (mouse 1); experiment: flow cytometry, inhibition of surface labeling by serum rVP56-AlOH (mouse 1)
[5] = target: Mouse serum rVP147-QuilA (mouse 2); experiment: flow cytometry, inhibition of surface labeling by serum rVP147-QuilA (mouse 2)
[6] = target: Mouse serum rVP56-AlOH (mouse 2); experiment: flow cytometry, inhibition of surface labeling by serum rVP56-AlOH (mouse 2)
[7] = target: Mouse serum rVP147-AlOH (mouse 2); experiment: flow cytometry, inhibition of surface labeling by serum rVP147-AlOH (mouse 2)
[8] = target: Mouse serum rVP56-QuilA (mouse 2); experiment: flow cytometry, inhibition of surface labeling by serum rVP56-QuilA (mouse 2)

Binder	% inhibition [1] [%]	% inhibition [2] [%]	% inhibition [3] [%]	% inhibition [4] [%]	% inhibition [5] [%]	% inhibition [6] [%]	% inhibition [7] [%]	% inhibition [8] [%]
B1	53.8	0.2	41.3	0	40.7	0	49.7	–
B2	50	99.7	68.1	99.7	74.1	100	61.6	99.8
B3	99.7	99.5	99.7	99.6	99.6	100	99.8	99.3
